Data published in patent US20100151566A1.

What was measured:
[1] = target: Isoform 121 of human VEGF-A (Peprotech) (human) (UniProt P15692); test: ELISA on coated antigen, 2 µg/mL, 9E10 detection
[2] = target: Isoform 121 of human VEGF-A (Peprotech) (human) (UniProt P15692); test: ELISA on coated antigen, 20 µg/mL, 9E10 detection
[3] = target: Isoform 121 of human VEGF-A (Peprotech) (human) (UniProt P15692); test: ELISA on coated antigen, 0.2 µg/mL, 9E10 detection
[4] = target: Isoform 121 of human VEGF-A (Peprotech) (human) (UniProt P15692); test: phage ELISA on native VEGF-A 121
[5] = target: Human VEGF-A treated with DTT (reduced) (human) (UniProt P15692); test: phage ELISA on DTT-reduced VEGF-A 121
[6] = target: Isoform 121 of human VEGF-A (Peprotech) (human) (UniProt P15692); test: phage ELISA on coated VEGF-A 121, without KDR-Fc
[7] = target: Isoform 121 of human VEGF-A (Peprotech) (human) (UniProt P15692); test: phage ELISA on coated VEGF-A 121, competitor KDR-Fc 2 µg/mL

Isoform 121 of human VEGF-A (Peprotech) (human), sequence (P15692 other isoform, or with tags, fused parts or gaps): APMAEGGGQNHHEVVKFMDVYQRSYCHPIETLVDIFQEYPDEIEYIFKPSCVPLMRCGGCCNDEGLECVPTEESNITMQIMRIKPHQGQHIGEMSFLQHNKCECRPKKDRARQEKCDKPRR
Human VEGF-A treated with DTT (reduced) (human), sequence (P15692 other isoform, or with tags, fused parts or gaps limits assumed): as the sequence (P15692 other isoform, or with tags, fused parts or gaps) above

B1: Fab 2H1-32 (Fab, V domains shown)
VH: QVQLVQSGAEVKKPGESLKISCKGSGYSFTSYWIGWVRQMPGKGLEWMGIIYPGDSDTRYSPSFQGQVTISADKSISTAYLQWSSLKASDTAMYYCARLVVRDTEIWGQGTMVTVSS
VL: QAVVTQEPSLTVSPGGTVTLTCASSIGAVTSGNYPNWFQQRPGQPPRALIYSTSNKHSWTPARFSGSLLGGKAALTLSGAQPEDEAEYYCLLSYSGARPVFGGGTKLTVLG
[1]
  Optical Density (492 nm): 1.09 OD 492 nm
[2]
  Optical Density (492 nm): 1.02 OD 492 nm
[3]
  Optical Density (492 nm): 0.675 OD 492 nm

B2: phage clone 2H1-F (scFv, not shown: large carriers; small tags and cut ends)
scFv: QQVQLVQSGAEVKKPGESLKISCKGSGYSFTSYWIGWVRQMPGKGLEWMGIIYPGDSDTRYSPSFQGQVTISADKSISTAYLQWSSLKASDTAMYYCARLVVRDTEIWGQGTMVTVSSAPQAKSSGSGSESKVDQAVVTQEPSLTVSPGGTVTLTCASSIGAVTSGNYPNWFQQRPGQPPRALIYSTSNKHSWTPARFSGSLLGGKAALTLSGAQPEDEAEYYCLLSYSGARPVFGGGTKLTVLG
[4]
  Optical Density (492 nm): 1.25 OD 492 nm
[5]
  Optical Density (492 nm): 0.103 OD 492 nm
[6]
  Optical Density (492 nm): 1.15 OD 492 nm
[7]
  Optical Density (492 nm): 0.577 OD 492 nm
